# Publication doi:10.1101/2020.07.21.214338
# Key:
# Test in all cases: native gel or EMSA
# [1] = molecular target: 12x nucleosome array (human | Xenopus laevis)
# [2] = molecular target: 147-bp nucleosome core particle (human | Xenopus laevis)
# [3] = molecular target: 209-bp nucleosome core particle (human | Xenopus laevis)
substance,measurement,setting,value
CBP core-ZZ-TAZ2 (domain or fragment),Kd,[1],309 nM
same,Kd,[2],1000 nM
same,Kd,[3],540 nM
